Results on one protein are retold here after US20140134202A1 (FOLIA BIOTECH, published 2014).

The data set deals with the molecule itself. Kind of data set: gel filtration (Superdex 200), self-association into disks. In general terms: SEC sorts molecules by how far they enter the pores of the column.

B1: CP.DELTA.N5 PapMV coat protein (recombinant, N-terminal 5 amino acids deleted, alanine inserted at p (other)
chain: MASTPNIAFPAITQEQMSSIKVDPTSNLLPSQEQLKSVSTLMVAAKVPAASVTTVALELVNFCYDNGSSAYTTVTGPSSIPEISLAQLASIVKASGTSLRKFCRYFAPIIWNLRTDKMAPANWEASGYKPSAKFAAFDFFDGVENPAAMQPPSGLTRSPTQEERIANATNKQVHLFQAAAQDNNFASNSAFITKGQISGSTPTIQFLPPPE
notes: also called CPΔN5; CPΔN5 PapMV VLP
Take B1: the binding result is “binds”.
